Source: patent US20120121633A1, “HIV CD4 BINDING SITE BASED COVALENT IMMUNOGEN COMPOSITIONS” (priority 2010, published 2012)

Tests used:
[1] = biological target: gp120 on intact HIV virions (strain MN) (HIV strain MN) (UniProt P05877); experiment: MAb (7.5 µg/ml) with intact HIV virions, complexes captured on Protein G, p24 ELISA
[2] = biological target: gp120 on intact HIV virions (strain MN) (HIV strain MN) (UniProt P05877); experiment: MAb (0.8 µg/ml) with intact HIV virions, complexes captured on Protein G, p24 ELISA
[3] = biological target: gp120 on intact HIV virions (strain MN) (HIV strain MN) (UniProt P05877); experiment: MAb (45 µg/ml) with intact HIV virions, complexes captured on Protein G, p24 ELISA

Substance: MAb 2G12 (antibody)
- A490 (MAb binding of HIV in the absence of competitors) [1]: 0.246 A490

Substance: MAb 447-52D (antibody)
- A490 (MAb binding of HIV in the absence of competitors) [2]: 0.291 A490

Substance: MAb clone b12 (antibody)
- A490 (MAb binding of HIV in the absence of competitors) [3]: 0.176 A490
